The target of test [1] is microtubules (MTs). As to the kind of experiment: TIRF-M dwell time on microtubules with EB1.
For test [2], the target named is Alexa-647-labeled KIF5AA (mouse) (UniProt P33175). As to the kind of experiment: dual color TIRF-M in vitro motility reconstitution.
For test [3], the target named is microtubules (MTs). As to the kind of experiment: TIRF-M dwell time of diffusing molecules on microtubules.

Some results are limits rather than exact numbers.

Alexa-647-labeled KIF5AA (mouse), sequence (P33175 whole entry): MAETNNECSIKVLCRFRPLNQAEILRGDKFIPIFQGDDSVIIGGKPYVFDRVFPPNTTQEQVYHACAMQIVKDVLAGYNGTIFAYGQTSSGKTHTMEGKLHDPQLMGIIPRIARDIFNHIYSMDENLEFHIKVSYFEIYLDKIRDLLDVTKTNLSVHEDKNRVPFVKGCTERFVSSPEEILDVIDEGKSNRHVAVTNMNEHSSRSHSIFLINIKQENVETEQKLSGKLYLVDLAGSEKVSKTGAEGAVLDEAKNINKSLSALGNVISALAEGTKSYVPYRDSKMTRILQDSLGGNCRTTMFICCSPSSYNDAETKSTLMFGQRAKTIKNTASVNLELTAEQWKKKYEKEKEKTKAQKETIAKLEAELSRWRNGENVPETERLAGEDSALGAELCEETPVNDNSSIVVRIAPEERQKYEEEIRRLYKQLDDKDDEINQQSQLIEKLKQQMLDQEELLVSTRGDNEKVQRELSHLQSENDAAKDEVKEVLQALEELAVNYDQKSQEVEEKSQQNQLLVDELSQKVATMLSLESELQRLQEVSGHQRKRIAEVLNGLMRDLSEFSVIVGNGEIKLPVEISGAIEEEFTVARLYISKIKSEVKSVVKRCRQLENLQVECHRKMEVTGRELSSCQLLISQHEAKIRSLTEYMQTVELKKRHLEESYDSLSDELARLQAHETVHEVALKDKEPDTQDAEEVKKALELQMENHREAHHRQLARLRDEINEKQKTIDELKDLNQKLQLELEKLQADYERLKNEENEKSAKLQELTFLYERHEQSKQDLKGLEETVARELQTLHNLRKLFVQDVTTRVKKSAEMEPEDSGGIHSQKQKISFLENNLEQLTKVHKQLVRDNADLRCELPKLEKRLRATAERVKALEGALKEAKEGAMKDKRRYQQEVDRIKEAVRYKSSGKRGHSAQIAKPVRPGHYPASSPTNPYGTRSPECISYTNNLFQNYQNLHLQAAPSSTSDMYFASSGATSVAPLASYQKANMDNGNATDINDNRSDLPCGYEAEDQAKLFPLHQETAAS

In turn, “adenomatous polyposis coli (APC), full-length, Q61315 1-2845” came in with a dwell time with EB1 (fast and slow components) with microtubules (MTs) [1] of over 60 s. The percent of processive KIF5AA-647 that transports APC–TMR in test [2] was 25%. The dwell time, long diffusion events in the test with microtubules (MTs) [3] is 26.3 s.
